In patent publication US20140087995A1 (published 2014):
Numbered stars: 1 amine (or outer) side, 2 acyl side, 3 side chain; on linkers, the order of the positions; unused ones are H or OH. Bridge positions count the residues as written; N and C are the ends. Side chains are listed from the residue outwards. Ends that are not written are not given here. * marks the point of attachment. C20 diacid = O=C(O)CCCCCCCCCCCCCCCCCCC(=O)*; γGlu = O=C(O)[C@H](CCC(=O)[*:2])N[*:1]; AEEA = NCCOCCOCC(=O)O

T1: human calcitonin receptor (human, UniProt P30988 25-474)
T1 construct: whole, on cells; also called hCTR; hCT
T1 sequence (looked up): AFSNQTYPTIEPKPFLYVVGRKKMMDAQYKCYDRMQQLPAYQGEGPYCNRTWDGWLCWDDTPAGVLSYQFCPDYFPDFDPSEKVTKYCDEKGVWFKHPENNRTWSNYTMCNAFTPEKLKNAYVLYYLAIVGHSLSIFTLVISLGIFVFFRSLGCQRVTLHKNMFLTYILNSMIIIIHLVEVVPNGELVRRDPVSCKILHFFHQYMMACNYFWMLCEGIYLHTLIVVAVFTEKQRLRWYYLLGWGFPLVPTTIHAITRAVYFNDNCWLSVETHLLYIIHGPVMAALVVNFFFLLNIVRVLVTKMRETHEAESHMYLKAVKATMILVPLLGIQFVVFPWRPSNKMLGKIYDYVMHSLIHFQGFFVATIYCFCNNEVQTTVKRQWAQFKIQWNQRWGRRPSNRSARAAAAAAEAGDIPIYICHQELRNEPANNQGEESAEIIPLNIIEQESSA


Key:
[1] = target: T1, human calcitonin receptor; assay: SPA radioligand competition (125I-calcitonin), membranes of BHK cells with human calcitonin receptor
Procedure, shortened: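 BHK hCTR membranes 35 ng/μL + SPA beads 0.05 mg/well; buffer 50 mM Hepes pH 7.4, 1 mM CaCl2, 5 mM MgCl₂, 0.1% OA, 0.02% Tween20. 120 min, 25° C., shaking. Scintillation count; IC50 by one-site binding competition.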

[2] = target: T1, human calcitonin receptor; assay: ratio of IC50 at human calcitonin receptor to IC50 at human amylin receptor (SPA competition assays)
Procedure, shortened: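 IC₅₀ values were derived by one-site competition analysis of SPA counts. Cell membranes (35 ng/μL) with SPA beads were incubated with test compounds for 120 min at 25° C in Hepes buffer, pH 7.4, containing CaCl2, MgCl₂, OA and Tween20.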

Binder	IC50 [1]	Ratio hCT/hAmylin binding [2]
K([AEEA-γGlu-C20 diacid])CNTATCATQRLAHFLRHSSPNFGAIPSSTNVGHNTY-NH2 (disulfide 2-7; N-terminus assumed; SMILES CC[C@H](C)[C@H](NC(=O)[C@H](C)NC(=O)CNC(=O)[C@H](Cc1ccccc1)NC(=O)[C@H](CC(N)=O)NC(=O)[C@@H]1CCCN1C(=O)[C@H](CO)NC(=O)[C@H](CO)NC(=O)[C@H](Cc1c[nH]cn1)NC(=O)[C@H](CCCNC(=N)N)NC(=O)[C@H](CC(C)C)NC(=O)[C@H](Cc1ccccc1)NC(=O)[C@H](Cc1c[nH]cn1)NC(=O)[C@H](C)NC(=O)[C@H](CC(C)C)NC(=O)[C@H](CCCNC(=N)N)NC(=O)[C@H](CCC(N)=O)NC(=O)[C@@H](NC(=O)[C@H](C)NC(=O)[C@@H]1CSSC[C@H](NC(=O)[C@@H](N)CCCCNC(=O)COCCOCCNC(=O)CC[C@H](NC(=O)CCCCCCCCCCCCCCCCCCC(=O)O)C(=O)O)C(=O)N[C@@H](CC(N)=O)C(=O)N[C@@H]([C@@H](C)O)C(=O)N[C@@H](C)C(=O)N[C@@H]([C@@H](C)O)C(=O)N1)[C@@H](C)O)C(=O)N1CCC[C@H]1C(=O)N[C@@H](CO)C(=O)N[C@@H](CO)C(=O)N[C@H](C(=O)N[C@@H](CC(N)=O)C(=O)N[C@H](C(=O)NCC(=O)N[C@@H](Cc1c[nH]cn1)C(=O)N[C@@H](CC(N)=O)C(=O)N[C@H](C(=O)N[C@@H](Cc1ccc(O)cc1)C(N)=O)[C@@H](C)O)C(C)C)[C@@H](C)O, also called compound 80)	19.8 nM	68.1
K([AEEA-γGlu-C20 diacid])CNTATCATQRLAKFLRHSSPNFGAIPSSTPVGSNTY-NH2 (disulfide 2-7; N-terminus assumed; SMILES CC[C@H](C)[C@H](NC(=O)[C@H](C)NC(=O)CNC(=O)[C@H](Cc1ccccc1)NC(=O)[C@H](CC(N)=O)NC(=O)[C@@H]1CCCN1C(=O)[C@H](CO)NC(=O)[C@H](CO)NC(=O)[C@H](Cc1c[nH]cn1)NC(=O)[C@H](CCCNC(=N)N)NC(=O)[C@H](CC(C)C)NC(=O)[C@H](Cc1ccccc1)NC(=O)[C@H](CCCCN)NC(=O)[C@H](C)NC(=O)[C@H](CC(C)C)NC(=O)[C@H](CCCNC(=N)N)NC(=O)[C@H](CCC(N)=O)NC(=O)[C@@H](NC(=O)[C@H](C)NC(=O)[C@@H]1CSSC[C@H](NC(=O)[C@@H](N)CCCCNC(=O)COCCOCCNC(=O)CC[C@H](NC(=O)CCCCCCCCCCCCCCCCCCC(=O)O)C(=O)O)C(=O)N[C@@H](CC(N)=O)C(=O)N[C@@H]([C@@H](C)O)C(=O)N[C@@H](C)C(=O)N[C@@H]([C@@H](C)O)C(=O)N1)[C@@H](C)O)C(=O)N1CCC[C@H]1C(=O)N[C@@H](CO)C(=O)N[C@@H](CO)C(=O)N[C@H](C(=O)N1CCC[C@H]1C(=O)N[C@H](C(=O)NCC(=O)N[C@@H](CO)C(=O)N[C@@H](CC(N)=O)C(=O)N[C@H](C(=O)N[C@@H](Cc1ccc(O)cc1)C(N)=O)[C@@H](C)O)C(C)C)[C@@H](C)O, also called compound 74)	79.9 nM	101
K([AEEA-γGlu-C20 diacid])CNTATCATQRLAHFLRHSSPNFGAIPSSTNVGSNTY-NH2 (disulfide 2-7; N-terminus assumed; SMILES CC[C@H](C)[C@H](NC(=O)[C@H](C)NC(=O)CNC(=O)[C@H](Cc1ccccc1)NC(=O)[C@H](CC(N)=O)NC(=O)[C@@H]1CCCN1C(=O)[C@H](CO)NC(=O)[C@H](CO)NC(=O)[C@H](Cc1c[nH]cn1)NC(=O)[C@H](CCCNC(=N)N)NC(=O)[C@H](CC(C)C)NC(=O)[C@H](Cc1ccccc1)NC(=O)[C@H](Cc1c[nH]cn1)NC(=O)[C@H](C)NC(=O)[C@H](CC(C)C)NC(=O)[C@H](CCCNC(=N)N)NC(=O)[C@H](CCC(N)=O)NC(=O)[C@@H](NC(=O)[C@H](C)NC(=O)[C@@H]1CSSC[C@H](NC(=O)[C@@H](N)CCCCNC(=O)COCCOCCNC(=O)CC[C@H](NC(=O)CCCCCCCCCCCCCCCCCCC(=O)O)C(=O)O)C(=O)N[C@@H](CC(N)=O)C(=O)N[C@@H]([C@@H](C)O)C(=O)N[C@@H](C)C(=O)N[C@@H]([C@@H](C)O)C(=O)N1)[C@@H](C)O)C(=O)N1CCC[C@H]1C(=O)N[C@@H](CO)C(=O)N[C@@H](CO)C(=O)N[C@H](C(=O)N[C@@H](CC(N)=O)C(=O)N[C@H](C(=O)NCC(=O)N[C@@H](CO)C(=O)N[C@@H](CC(N)=O)C(=O)N[C@H](C(=O)N[C@@H](Cc1ccc(O)cc1)C(N)=O)[C@@H](C)O)C(C)C)[C@@H](C)O, also called compound 69)	8.68 nM	65.3
K([AEEA-γGlu-C20 diacid])CNTATCATQRLASFLRHSSPNFGAIPSSTPVGSNTY-NH2 (disulfide 2-7; N-terminus assumed; SMILES CC[C@H](C)[C@H](NC(=O)[C@H](C)NC(=O)CNC(=O)[C@H](Cc1ccccc1)NC(=O)[C@H](CC(N)=O)NC(=O)[C@@H]1CCCN1C(=O)[C@H](CO)NC(=O)[C@H](CO)NC(=O)[C@H](Cc1c[nH]cn1)NC(=O)[C@H](CCCNC(=N)N)NC(=O)[C@H](CC(C)C)NC(=O)[C@H](Cc1ccccc1)NC(=O)[C@H](CO)NC(=O)[C@H](C)NC(=O)[C@H](CC(C)C)NC(=O)[C@H](CCCNC(=N)N)NC(=O)[C@H](CCC(N)=O)NC(=O)[C@@H](NC(=O)[C@H](C)NC(=O)[C@@H]1CSSC[C@H](NC(=O)[C@@H](N)CCCCNC(=O)COCCOCCNC(=O)CC[C@H](NC(=O)CCCCCCCCCCCCCCCCCCC(=O)O)C(=O)O)C(=O)N[C@@H](CC(N)=O)C(=O)N[C@@H]([C@@H](C)O)C(=O)N[C@@H](C)C(=O)N[C@@H]([C@@H](C)O)C(=O)N1)[C@@H](C)O)C(=O)N1CCC[C@H]1C(=O)N[C@@H](CO)C(=O)N[C@@H](CO)C(=O)N[C@H](C(=O)N1CCC[C@H]1C(=O)N[C@H](C(=O)NCC(=O)N[C@@H](CO)C(=O)N[C@@H](CC(N)=O)C(=O)N[C@H](C(=O)N[C@@H](Cc1ccc(O)cc1)C(N)=O)[C@@H](C)O)C(C)C)[C@@H](C)O, also called compound 73)	5.38 nM	51.7
K([γGlu-C20 diacid])CNTATCATQRLAAFLRHSSPNFGAIPSSTNVGHNTY-NH2 (disulfide 2-7; N-terminus assumed; SMILES CC[C@H](C)[C@H](NC(=O)[C@H](C)NC(=O)CNC(=O)[C@H](Cc1ccccc1)NC(=O)[C@H](CC(N)=O)NC(=O)[C@@H]1CCCN1C(=O)[C@H](CO)NC(=O)[C@H](CO)NC(=O)[C@H](Cc1c[nH]cn1)NC(=O)[C@H](CCCNC(=N)N)NC(=O)[C@H](CC(C)C)NC(=O)[C@H](Cc1ccccc1)NC(=O)[C@H](C)NC(=O)[C@H](C)NC(=O)[C@H](CC(C)C)NC(=O)[C@H](CCCNC(=N)N)NC(=O)[C@H](CCC(N)=O)NC(=O)[C@@H](NC(=O)[C@H](C)NC(=O)[C@@H]1CSSC[C@H](NC(=O)[C@@H](N)CCCCNC(=O)CC[C@H](NC(=O)CCCCCCCCCCCCCCCCCCC(=O)O)C(=O)O)C(=O)N[C@@H](CC(N)=O)C(=O)N[C@@H]([C@@H](C)O)C(=O)N[C@@H](C)C(=O)N[C@@H]([C@@H](C)O)C(=O)N1)[C@@H](C)O)C(=O)N1CCC[C@H]1C(=O)N[C@@H](CO)C(=O)N[C@@H](CO)C(=O)N[C@H](C(=O)N[C@@H](CC(N)=O)C(=O)N[C@H](C(=O)NCC(=O)N[C@@H](Cc1c[nH]cn1)C(=O)N[C@@H](CC(N)=O)C(=O)N[C@H](C(=O)N[C@@H](Cc1ccc(O)cc1)C(N)=O)[C@@H](C)O)C(C)C)[C@@H](C)O, also called compound 93)	17.8 nM	101
K([AEEA-γGlu-C20 diacid])CNTATCATQRLATFLRHSSPNFGAIPSSTPVGSNTY-NH2 (disulfide 2-7; N-terminus assumed; SMILES CC[C@H](C)[C@H](NC(=O)[C@H](C)NC(=O)CNC(=O)[C@H](Cc1ccccc1)NC(=O)[C@H](CC(N)=O)NC(=O)[C@@H]1CCCN1C(=O)[C@H](CO)NC(=O)[C@H](CO)NC(=O)[C@H](Cc1c[nH]cn1)NC(=O)[C@H](CCCNC(=N)N)NC(=O)[C@H](CC(C)C)NC(=O)[C@H](Cc1ccccc1)NC(=O)[C@@H](NC(=O)[C@H](C)NC(=O)[C@H](CC(C)C)NC(=O)[C@H](CCCNC(=N)N)NC(=O)[C@H](CCC(N)=O)NC(=O)[C@@H](NC(=O)[C@H](C)NC(=O)[C@@H]1CSSC[C@H](NC(=O)[C@@H](N)CCCCNC(=O)COCCOCCNC(=O)CC[C@H](NC(=O)CCCCCCCCCCCCCCCCCCC(=O)O)C(=O)O)C(=O)N[C@@H](CC(N)=O)C(=O)N[C@@H]([C@@H](C)O)C(=O)N[C@@H](C)C(=O)N[C@@H]([C@@H](C)O)C(=O)N1)[C@@H](C)O)[C@@H](C)O)C(=O)N1CCC[C@H]1C(=O)N[C@@H](CO)C(=O)N[C@@H](CO)C(=O)N[C@H](C(=O)N1CCC[C@H]1C(=O)N[C@H](C(=O)NCC(=O)N[C@@H](CO)C(=O)N[C@@H](CC(N)=O)C(=O)N[C@H](C(=O)N[C@@H](Cc1ccc(O)cc1)C(N)=O)[C@@H](C)O)C(C)C)[C@@H](C)O, also called compound 75)	60.9 nM	91.4
